{"source": "the supplement of paper PMC9112550", "about": "“Optimization of the antimicrobial peptide Bac7 by deep mutational scanning” (BMC Biology, 2022);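 note: peptides expressed intracellularly from a pBAD plasmid library in pooled LB shake-flask culture, induced with 0.3% L-arabinose, DNA abundance read by NGS, three biological replicates, DESeq2 with apeglm shrinkage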"}
{"tested_on": "Escherichia coli TOP10", "test": "shrunken log2 fold change of peptide-encoding DNA abundance (4.5 h post-induction vs induction); higher = less antimicrobial activity (less host growth inhibition)", "settings": "time post-induction: 4.5 h; library: site-saturation at positions 5, 18, 19, 20"}
{"sequence": "RRIRMRPPRLPRPRPRPKNSPRP", "shrunken log2 fold change": 0.132}
{"sequence": "RRIRMRPPRLPRPRPRPAVSPRP", "shrunken log2 fold change": 0.494}
{"sequence": "RRIRGRPPRLPRPRPRPGTFPRP", "shrunken log2 fold change": 0.222}
{"sequence": "RRIRSRPPRLPRPRPRPVWIPRP", "shrunken log2 fold change": 0.0104}
{"sequence": "RRIRMRPPRLPRPRPRPGWCPRP", "shrunken log2 fold change": 0.181}
{"sequence": "RRIRIRPPRLPRPRPRPYVDPRP", "shrunken log2 fold change": -0.0276}
{"sequence": "RRIRWRPPRLPRPRPRPKWTPRP", "shrunken log2 fold change": -0.119}
{"sequence": "RRIRFRPPRLPRPRPRPFIEPRP", "shrunken log2 fold change": -0.894}
{"sequence": "RRIRPRPPRLPRPRPRPDCQPRP", "shrunken log2 fold change": -0.0657}
{"sequence": "RRIRSRPPRLPRPRPRPLMLPRP", "shrunken log2 fold change": -0.581}
{"sequence": "RRIRTRPPRLPRPRPRPINLPRP", "shrunken log2 fold change": -0.156}
{"sequence": "RRIRHRPPRLPRPRPRPYKSPRP", "shrunken log2 fold change": -0.00494}
{"sequence": "RRIRRRPPRLPRPRPRPCAHPRP", "shrunken log2 fold change": 0.067}
{"sequence": "RRIRNRPPRLPRPRPRPPVEPRP", "shrunken log2 fold change": 0.272}
{"sequence": "RRIRHRPPRLPRPRPRPMSVPRP", "shrunken log2 fold change": -0.294}
{"sequence": "RRIRSRPPRLPRPRPRPETYPRP", "shrunken log2 fold change": -0.293}
{"sequence": "RRIRCRPPRLPRPRPRPSVMPRP", "shrunken log2 fold change": 0.445}
{"sequence": "RRIRYRPPRLPRPRPRPQFEPRP", "shrunken log2 fold change": -0.106}
{"sequence": "RRIRWRPPRLPRPRPRPCTDPRP", "shrunken log2 fold change": 0.0992}
{"sequence": "RRIRSRPPRLPRPRPRPLHSPRP", "shrunken log2 fold change": -0.0322}
{"sequence": "RRIRSRPPRLPRPRPRPIFDPRP", "shrunken log2 fold change": -0.0516}
{"sequence": "RRIRGRPPRLPRPRPRPDWLPRP", "shrunken log2 fold change": 0.963}
{"sequence": "RRIRPRPPRLPRPRPRPSHTPRP", "shrunken log2 fold change": -0.0343}
{"sequence": "RRIRGRPPRLPRPRPRPELAPRP", "shrunken log2 fold change": 2}
{"sequence": "RRIRARPPRLPRPRPRPYQCPRP", "shrunken log2 fold change": -0.44}
{"sequence": "RRIRGRPPRLPRPRPRPIRLPRP", "shrunken log2 fold change": -0.0112}
{"sequence": "RRIRSRPPRLPRPRPRPESQPRP", "shrunken log2 fold change": 0.0194}
{"sequence": "RRIRKRPPRLPRPRPRPHICPRP", "shrunken log2 fold change": 0.00561}
{"sequence": "RRIRRRPPRLPRPRPRPYPSPRP", "shrunken log2 fold change": -0.305}
{"sequence": "RRIRTRPPRLPRPRPRPPHWPRP", "shrunken log2 fold change": 0.333}
{"sequence": "RRIRDRPPRLPRPRPRPGFCPRP", "shrunken log2 fold change": 0.567}
{"sequence": "RRIRCRPPRLPRPRPRPTGDPRP", "shrunken log2 fold change": 0.231}
{"sequence": "RRIRTRPPRLPRPRPRPDPIPRP", "shrunken log2 fold change": 0.03}
{"sequence": "RRIRWRPPRLPRPRPRPDNRPRP", "shrunken log2 fold change": -0.213}
{"sequence": "RRIRGRPPRLPRPRPRPQDGPRP", "shrunken log2 fold change": 0.0108}
{"sequence": "RRIRLRPPRLPRPRPRPLFSPRP", "shrunken log2 fold change": -0.588}
{"sequence": "RRIRNRPPRLPRPRPRPCIQPRP", "shrunken log2 fold change": 0.00396}
{"sequence": "RRIRERPPRLPRPRPRPMPNPRP", "shrunken log2 fold change": -0.172}
{"sequence": "RRIRARPPRLPRPRPRPAYFPRP", "shrunken log2 fold change": 0.0133}
{"sequence": "RRIRVRPPRLPRPRPRPTDQPRP", "shrunken log2 fold change": -0.0162}
{"sequence": "RRIRFRPPRLPRPRPRPGCPPRP", "shrunken log2 fold change": 0.00835}
{"sequence": "RRIRHRPPRLPRPRPRPVHYPRP", "shrunken log2 fold change": -0.495}
{"sequence": "RRIRNRPPRLPRPRPRPMVAPRP", "shrunken log2 fold change": 0.0624}
{"sequence": "RRIRIRPPRLPRPRPRPTLYPRP", "shrunken log2 fold change": -0.348}
{"sequence": "RRIRVRPPRLPRPRPRPGSTPRP", "shrunken log2 fold change": -0.311}
{"sequence": "RRIRGRPPRLPRPRPRPVQSPRP", "shrunken log2 fold change": 0.689}
{"sequence": "RRIRRRPPRLPRPRPRPFRGPRP", "shrunken log2 fold change": -0.105}
{"sequence": "RRIRVRPPRLPRPRPRPLYWPRP", "shrunken log2 fold change": -0.329}
{"sequence": "RRIRRRPPRLPRPRPRPRQRPRP", "shrunken log2 fold change": 0.636}
{"sequence": "RRIRERPPRLPRPRPRPEGCPRP", "shrunken log2 fold change": -0.318}
{"sequence": "RRIRNRPPRLPRPRPRPADKPRP", "shrunken log2 fold change": 0.0545}
{"sequence": "RRIRYRPPRLPRPRPRPMDLPRP", "shrunken log2 fold change": -0.0912}
{"sequence": "RRIRTRPPRLPRPRPRPEPCPRP", "shrunken log2 fold change": 0.0427}
{"sequence": "RRIRCRPPRLPRPRPRPFHTPRP", "shrunken log2 fold change": -0.0266}
{"sequence": "RRIRKRPPRLPRPRPRPKVWPRP", "shrunken log2 fold change": 0.354}
{"sequence": "RRIRYRPPRLPRPRPRPRRFPRP", "shrunken log2 fold change": 0.256}
{"sequence": "RRIRGRPPRLPRPRPRPGRNPRP", "shrunken log2 fold change": 0.307}
{"sequence": "RRIRSRPPRLPRPRPRPNNTPRP", "shrunken log2 fold change": -0.574}
{"sequence": "RRIRVRPPRLPRPRPRPELPPRP", "shrunken log2 fold change": -0.0996}
{"sequence": "RRIRERPPRLPRPRPRPACFPRP", "shrunken log2 fold change": 0.00624}
{"sequence": "RRIRVRPPRLPRPRPRPDGLPRP", "shrunken log2 fold change": 0.0431}
{"sequence": "RRIRVRPPRLPRPRPRPIHHPRP", "shrunken log2 fold change": -0.723}
{"sequence": "RRIRIRPPRLPRPRPRPTQDPRP", "shrunken log2 fold change": -0.236}
{"sequence": "RRIRCRPPRLPRPRPRPKSAPRP", "shrunken log2 fold change": 0.146}
{"sequence": "RRIRTRPPRLPRPRPRPCRDPRP", "shrunken log2 fold change": -0.118}
{"sequence": "RRIRRRPPRLPRPRPRPDTSPRP", "shrunken log2 fold change": 0.0612}
{"sequence": "RRIRPRPPRLPRPRPRPWGMPRP", "shrunken log2 fold change": -0.128}
{"sequence": "RRIRCRPPRLPRPRPRPWITPRP", "shrunken log2 fold change": -1.47}
{"sequence": "RRIRQRPPRLPRPRPRPYGNPRP", "shrunken log2 fold change": -0.0235}
{"sequence": "RRIRIRPPRLPRPRPRPEGEPRP", "shrunken log2 fold change": 0.134}
{"sequence": "RRIRIRPPRLPRPRPRPWRPPRP", "shrunken log2 fold change": 0.145}
{"sequence": "RRIRCRPPRLPRPRPRPRERPRP", "shrunken log2 fold change": 0.875}
{"sequence": "RRIRVRPPRLPRPRPRPTLCPRP", "shrunken log2 fold change": 0.0223}
{"sequence": "RRIRWRPPRLPRPRPRPLMGPRP", "shrunken log2 fold change": -0.276}
{"sequence": "RRIRRRPPRLPRPRPRPLFGPRP", "shrunken log2 fold change": 0.649}
